Experimental data published in paper PMC11876703, “Structural basis for human NKCC1 inhibition by loop diuretic drugs” (The EMBO Journal, 2025).
Positions count from the first letter of the chain named. Numbers in names are those of the source.

B1: phospho-activated human NKCC1 (Na+-K+-Cl- cotransporter 1), P55011 1-1212 (natural protein)
chain: MEPRPTAPSSGAPGLAGVGETPSAAALAAARVELPGTAVPSVPEDAAPASRDGGGVRDEGPAAAGDGLGRPLGPTPSQSRFQVDLVSENAGRAAAAAAAAAAAAAAAGAGAGAKQTPADGEASGESEPAKGSEEAKGRFRVNFVDPAASSSAEDSLSDAAGVGVDGPNVSFQNGGDTVLSEGSSLHSGGGGGSGHHQHYYYDTHTNTYYLRTFGHNTMDAVPRIDHYRHTAAQLGEKLLRPSLAELHDELEKEPFEDGFANGEESTPTRDAVVTYTAESKGVVKFGWIKGVLVRCMLNIWGVMLFIRLSWIVGQAGIGLSVLVIMMATVVTTITGLSTSAIATNGFVRGGGAYYLISRSLGPEFGGAIGLIFAFANAVAVAMYVVGFAETVVELLKEHSILMIDEINDIRIIGAITVVILLGISVAGMEWEAKAQIVLLVILLLAIGDFVIGTFIPLESKKPKGFFGYKSEIFNENFGPDFREEETFFSVFAIFFPAATGILAGANISGDLADPQSAIPKGTLLAILITTLVYVGIAVSVGSCVVRDATGNVNDTIVTELTNCTSAACKLNFDFSSCESSPCSYGLMNNFQVMSMVSGFTPLISAGIFSATLSSALASLVSAPKIFQALCKDNIYPAFQMFAKGYGKNNEPLRGYILTFLIALGFILIAELNVIAPIISNFFLASYALINFSVFHASLAKSPGWRPAFKYYNMWISLLGAILCCIVMFVINWWAALLTYVIVLGLYIYVTYKKPDVNWGSSTQALTYLNALQHSIRLSGVEDHVKNFRPQCLVMTGAPNSRPALLHLVHDFTKNVGLMICGHVHMGPRRQAMKEMSIDQAKYQRWLIKNKMKAFYAPVHADDLREGAQYLMQAAGLGRMKPNTLVLGFKKDWLQADMRDVDMYINLFHDAFDIQYGVVVIRLKEGLDISHLQGQEELLSSQEKSPGTKDVVVSVEYSKKSDLDTSKPLSEKPITHKVEEEDGKTATQPLLKKESKGPIVPLNVADQKLLEASTQFQKKQGKNTIDVWWLFDDGGLTLLIPYLLTTKKKWKDCKIRVFIGGKINRIDHDRRAMATLLSKFRIDFSDIMVLGDINTKPKKENIIAFEEIIEPYRLHEDDKEQDIADKMKEDEPWRITDNELELYKTKTYRQIRLNELLKEHSSTANIIVMSLPVARKGAVSSALYMAWLEALSKDLPPILLVRGNHQSVLTFYS
modifications: here or on the partner: phosphothreonine at Thr212, Thr217 and Thr230 (verified by mass spectrometry); Thr203, Thr205 and Thr207 also named as phosphoacceptor sites confirmed by mass spectrometry; phosphothreonine at Thr212, Thr217 and Thr230 (verified by mass spectrometry); Thr203, Thr205 and Thr207 also named as phosphoacceptor sites confirmed by mass spectrometry
B2: phospho-activated human NKCC1 bearing K289N and A492E mutations (natural protein, UniProt P55011 1-1212, looked up)
chain: B1 chain with K289N, A492E
modifications: phosphothreonine at Thr212, Thr217 and Thr230 (verified by mass spectrometry; pT212 and pT217 clearly seen in the map, pT230 tentatively modeled); Thr203, Thr205 and Thr207 also named as phosphoacceptor sites confirmed by mass spectrometry
notes: Used for the furosemide/ATP-Mg2+ co-structure; The tag was used for Strep-Tactin purification and no cleavage step is described; also called pNKCC1; NKCC1 (furosemide co-structure); source: calyculin-A treated; purified (Strep-Tactin resin, Superose 6) in GDN with 100 uM ATP

Tests used:
[1] = biological target: T1, phospho-activated human NKCC1 (Na+-K+-Cl- cotransporter 1) (human), P55011; assay: cryo-EM structure; purified pNKCC1 in GDN, 20 mM HEPES pH 7.4, with 100 uM bumetanide, 100 uM torsemide (K+-free buffer) or 2 mM furosemide plus 100 uM ATP; homodimer; settings: remark: other sources report otherwise
T1 chain: B1 chain

[2] = biological target: the molecule itself; assay: as above

Row | Binder | stoichiometry N [1] | stoichiometry N [2]
1 | B1 | 2 | –
2 | B2 | – | 2
